Assay [1] has as its system primary human T cells. Put plainly: transfection of primary human T cells, viability by light scatter and apoptosis by TUNEL. In kind it is cell-based. The settings on record: PBL from HIV-negative donors transfected with pcDNA3 HA casp8p41, compared with GSK3β control vector. The method, then:
Primary human T cells were tested for their response to expression of casp8p41 polypeptide by transfecting cells with a vector encoding casp8p41 polypeptide, or with a control vector encoding glycogen synthase kinase 3β (GSK3β; Kim et al., J Biol Chem., 278:13995-14001 (2003)). PBL from HIV-negative donors were isolated and transfected with 2 μg/10×10^6 cells with pcDNA3 HA GSK3β (Ougolkov et al., Cancer Res., 65:2076-2081 (2005)) or pcDNA3 HA casp8p41 using nucleofectin (AMAXA, MD) and program U14. Transfected cells were analyzed for changes in viability by light scatter or for apoptosis by TUNEL staining.

Assay [2] has as its system NFκB-mediated transcription. Briefly: NFκB activation in an over-expression system. In kind it is cell-based.
In assay [3] the test system is HeLa cells. Briefly: transient expression in HeLa cells, TUNEL, active caspase-3 and Annexin-V staining. The class given is cell-based. The settings on record: cells transfected with pEGFPC1casp8p41. On the procedure: The effect of transient expression of casp8p41 polypeptide in HeLa cells was investigated. HeLa cells were purchased from ATCC and maintained in Dulbecco's Modified Eagle Medium (DMEM; GIBCO) supplemented with 10% (v/v) FBS, 1% penicillin and streptomycin, and 2 mM L-glutamine. The cells were incubated at 37° C. in a humidified atmosphere containing 5% CO2 and 95% air. Exponentially growing cells were seeded at 2500-5000 cells/well in a 96-well plate. The cells were transfected with a DNA plasmid expressing GFP (pEGFPC1, BD Biosciences Clontech, Palo Alto, Calif.), or with a plasmid expressing casp8p41 polypeptide as a fusion to the C-terminus of GFP (pEGFPC1casp8p41) using Fugene 6 (2 μL per μg DNA), according to the manufacturer's protocol. […]
HeLa cells transfected with pEGFPC1 or pEGFPC1casp8p41 were analyzed by confocal microscopy following staining with DAPI to visualize cell nuclei and TUNEL staining to detect apoptosis. […]
Cells transfected with pEGFPC1 and pEGFPC1casp8p41 were also subjected to Annexin-V PE, active caspase-3, and TUNEL staining and analyzed for cell death by flow cytometry, gating specifically on GFP-positive cells. […] GFP and annexin-V PE double-positive cells were analyzed by flow cytometry at 30,000 events per sample. […]

For assay [4], the system named is cytosols from Jurkat T cells. Put plainly: apoptotic signaling cascade in cell-free system (Jurkat cell extracts), Western blot. The class given is biochemical. The settings on record: added to cytosols from Jurkat T cells. On the procedure:
The ability of the procaspase-8 cleavage fragment p41 (hereafter referred to as casp8p41) to initiate an apoptotic signaling cascade in a cell-free system was tested. The cell free system was used previously to reveal the signaling pathway used by HIV protease to initiate apoptosis.
Jurkat cells were purchased from ATCC (Rockville, Md.) and maintained in Dulbecco's Modified Eagle Medium (DMEM) or RPMI1640 (GIBCO) supplemented with 10% (v/v) FBS, 1% penicillin and streptomycin, and 2 mM L-glutamine. The cells were incubated at 37° C. in a humidified atmosphere containing 5% CO2 and 95% air. Jurkat cell extracts were prepared as described previously (Nie et al., Cell Death Differ., 9:1172-84 (2002)). Briefly, cells (0.5×10^6 cells/mL) were harvested by centrifugation at 16000×g for 5 minutes at 4° C. The cell pellet was washed twice with ice-cold PBS (pH 7.4), followed by a single wash with ice-cold caspase buffer (20 mM PIPES, 100 mM NaCl, 10 mM DTT, 1 mM EDTA, 0.1% CHAPS, 250 mM sucrose, pH 7.2). […] Polypeptide concentrations were determined using a BCA protein assay kit (Pierce Chemical Co., Rockford, Ill.), and the resultant suspension was incubated with either HIV protease or casp8p41 polypeptide. […]

The target of assay [5] is T1, procaspase-8 (Homo sapiens, UniProt Q14790, A331P).
T1 construct: amino acids 355 and 356 were mutated in full-length caspase-8; made in house; host or cells: cell-free TNT Quick coupled transcription/translation system (Promega)
T1 sequence (Q14790 whole entry A331P): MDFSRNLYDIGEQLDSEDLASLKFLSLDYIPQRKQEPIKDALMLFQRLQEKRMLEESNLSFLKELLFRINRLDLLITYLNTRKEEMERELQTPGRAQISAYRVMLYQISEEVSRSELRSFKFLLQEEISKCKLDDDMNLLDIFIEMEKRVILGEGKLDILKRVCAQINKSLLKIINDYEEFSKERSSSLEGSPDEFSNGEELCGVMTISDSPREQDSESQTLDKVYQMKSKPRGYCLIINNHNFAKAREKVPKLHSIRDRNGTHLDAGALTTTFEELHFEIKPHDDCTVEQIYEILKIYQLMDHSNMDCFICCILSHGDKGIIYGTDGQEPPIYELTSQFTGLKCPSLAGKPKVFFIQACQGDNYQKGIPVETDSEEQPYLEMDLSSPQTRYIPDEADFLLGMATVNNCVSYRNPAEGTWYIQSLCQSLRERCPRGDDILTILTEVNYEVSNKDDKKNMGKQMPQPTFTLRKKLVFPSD
Put plainly: in vitro cleavage of 35S methionine-labeled procaspase-8, autoradiography and immunoblotting. The class given is biochemical. The conditions noted are these: 50 mM NaOAc (pH 4.9), 200 mM NaCl, 5 mM DTT, 10% glycerol. The method, then: The fusion polypeptide, Flag-procaspase-8-Myc, was prepared by TNTR Quick coupled transcription/translation systems (Promega, Madison, Wis.). Briefly, 1 μg of pcDNA3Flag-procaspase-8-Myc or pcDNA3Flag (as a control) was added to a 50 μL nuclease-free reaction mixture containing 40 μL of TNT Quick Master Mix and 1 μL of 1 mM […] methionine. The reaction was carried out at 30° C. for 90 minutes and stopped by adding 20 μg/mL of cycloheximide (CI-IX) and 200 μg/mL of RNase and incubating the mixture at 30° C. for 5 minutes. ^35S methionine-labeled Flag-procaspase-8-Myc fusion polypeptide was prepared by adding 40 μCi of ^35S methionine instead of 1 μL of 1 mM methionine. The reaction mixture was separated by SDS-PAGE on a 10-15% gel and visualized by autoradiography. […]
The ^35S methionine-labeled Flag-procaspase-8-Myc fusion polypeptide produced in vitro was incubated with HIV-1 protease purchased from Sachem Biosciences (King of Prussia, Pa.). […] After cleavage of ^35S methionine-labeled Flag-procaspase-8-Myc fusion polypeptide by HIV-1 protease, the products were analyzed by autoradiography (FIG. 1C, top) and immunoblotting using antibodies directed against the Flag (FIG. 1C, middle) and Myc (FIG. 1C, bottom) epitopes. […]
A general note: Immunoblotting shows a protein as a band on a membrane.

This is an account of results in patent US20100062462A1, “IMMUNODEFICIENCY VIRUSES” (priority 2005, published 2010).

B1: casp8p41 polypeptide: procaspase-8 cleavage fragment p41 generated by HIV protease (SEQ ID NO:2) (protein, listed as Homo sapiens)
chain: MDFSRNLYDIGEQLDSEDLASLKFLSLDYIPQRKQEPIKDALMLFQRLQEKRMLEESNLSFLKELLFRINRLDLLITYLNTRKEEMERELQTPGRAQISAYRVMLYQISEEVSRSELRSFKFLLQEEISKCKLDDDMNLLDIFIEMEKRVILGEGKLDILKRVCAQINKSLLKIINDYEEFSKERSSSLEGSPDEFSNGEELCGVMTISDSPREQDSESQTLDKVYQMKSKPRGYCLIINNHNFAKAREKVPKLHSIRDRNGTHLDAGALTTTFEELHFEIKPHDDCTVEQIYEILKIYQLMDHSNMDCFICCILSHGDKGIIYGTDGQEPPIYELTSQFTGLKCPSLAGKPKVF
B1: in assay [1], the level of apoptosis result is “induced a significantly greater level of apoptosis”. Also, the NFκB activation result in assay [2] is on record as “two-fold more than full-length caspase-8 polypeptide”. Also, the “TUNEL positivity and active caspase-3 expression, flow cytometry gated on GFP-positive cells” value in assay [3] was “induces TUNEL positivity and active caspase-3 expression”. The “apoptotic signaling: Bid cleavage, cytochrome c release, caspase-9 and PARP cleavage” value in assay [4] was “resulted in cleavage of Bid to p15 tBid, release of cytochrome c from the mitochondrial fraction into the cytosol, and cleavage of caspase-9 and PARP”.

B2: renin: another aspartyl protease (protein, UniProt P00797 67-406, looked up)
Renin: LTLGNTTSSVILTNYMDTQYYGEIGIGTPPQTFKVVFDTGSSNVWVPSSKCSRLYTACVYHKLFDASDSSSYKHNGTELTLRYSTGTVSGFLSQDIITVGGITVTQMFGEVTEMPALPFMLAEFDGVVGMGFIEQAIGRVTPIFDNIISQGVLKEDVFSFYYNRDSENSQSLGGQIVLGGSDPQHYEGNFHYINLIKTGVWQIQMKGVSVGSSTLLCEDGCLALVDTGASYISGSTSSIEKLMEALGAKKRLFDYVVKCNEGPTLPDISFHLGGKEYTLTSADYVFQESYSSKKLCTLAIHAMDIPPPTGPTWALGATFIRKFYTEFDRRNNRIGFALAR
For the molecule B2, the “cleavage of Flag-procaspase-8-Myc fusion polypeptide” value in assay [5] is reported as “did not cause procaspase 8 cleavage”.

B3: caspase-8 polypeptide: full-length caspase-8 polypeptide, over-expressed (protein, UniProt Q14790 1-479, looked up)
chain: MDFSRNLYDIGEQLDSEDLASLKFLSLDYIPQRKQEPIKDALMLFQRLQEKRMLEESNLSFLKELLFRINRLDLLITYLNTRKEEMERELQTPGRAQISAYRVMLYQISEEVSRSELRSFKFLLQEEISKCKLDDDMNLLDIFIEMEKRVILGEGKLDILKRVCAQINKSLLKIINDYEEFSKERSSSLEGSPDEFSNGEELCGVMTISDSPREQDSESQTLDKVYQMKSKPRGYCLIINNHNFAKAREKVPKLHSIRDRNGTHLDAGALTTTFEELHFEIKPHDDCTVEQIYEILKIYQLMDHSNMDCFICCILSHGDKGIIYGTDGQEAPIYELTSQFTGLKCPSLAGKPKVFFIQACQGDNYQKGIPVETDSEEQPYLEMDLSSPQTRYIPDEADFLLGMATVNNCVSYRNPAEGTWYIQSLCQSLRERCPRGDDILTILTEVNYEVSNKDDKKNMGKQMPQPTFTLRKKLVFPSD
modifications: full-length
notes: full-length caspase-8 polypeptide, over-expressed
B3: in assay [2], the NFκB activation result was “increase NFκB activation”.
